Experiments:
[1] = molecular target: T1, human TIGIT ECD (human); assay: SPR, pH 6.0
T1 chain: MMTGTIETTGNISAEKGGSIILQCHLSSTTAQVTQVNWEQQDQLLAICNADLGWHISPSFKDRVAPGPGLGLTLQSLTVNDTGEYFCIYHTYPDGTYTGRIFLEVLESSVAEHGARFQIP

[2] = molecular target: T2, human TIGIT-Fc (human); assay: competition, FACS, blocking binding to PVR on HEK293
T2 chain: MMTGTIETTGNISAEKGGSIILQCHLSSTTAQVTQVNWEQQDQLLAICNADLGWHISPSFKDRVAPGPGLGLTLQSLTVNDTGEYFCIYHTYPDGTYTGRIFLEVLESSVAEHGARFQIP

[3] = molecular target: T2, human TIGIT-Fc; assay: competition, FACS, blocking binding to PVR-L2 on HEK293
[4] = molecular target: T1, human TIGIT ECD; assay: SPR, pH 7.4

Kd [1]: 0.0299 nM | IC50 [2]: 0.64 µg/mL | IC50 [3]: 0.25 µg/mL | Kd [4]: 0.219 nM
B1: hu1217-2-2/IgG1 (antibody, V domains shown)
VH: EVQLVESGGGLVQPGGSLRLSCAASGFTFSDYYMYWVRQAPGKGLEWVAYITKGGGSTYYPDSVKGRFTISRDNAKNTLYLQMNSLRAEDTAVYYCARQTNYDFTMDYWGQGTLVTVSS
VL: EIVMTQSPATLSVSPGERATLSCKASQDVGTSVAWYQQKPGQAPRLLIYWASARHTGIPARFSGSGSGTEFTLTISSLQSEDFAVYYCQQYSSYPLTFGGGTKVEIK
modifications: wild-type human IgG1 Fc

Reference: US20200331999 (published 2020)
